Laboratory results reported in US7115722.
Values joined by “and” are separate entries in the source; they are usually repeats but may differ in a detail not shown here. Equal entries are not always repeated. One block for each molecule: values may come before it.

Columns and labels:
[1] = target: C-antigen (human); experiment: flow cytometry, SK-BR-3 cells, 5 mg/L
[2] = target: C-antigen (human); experiment: flow cytometry, SK-BR-3 cells, 2 mg/L IgG1
[3] = target: C-antigen (human); experiment: flow cytometry, SK-BR-3 cells, 4.0 mg/L IgG1
[4] = target: C-antigen (human); experiment: flow cytometry, SK-BR-3 cells, 3.3 mg/L IgG1
[5] = target: C-antigen (human); experiment: flow cytometry, SK-BR-3 cells, 3.9 mg/L IgG1
[6] = target: C-antigen (human); experiment: flow cytometry, live CCRF-CEM cells, 100 µg/mL
[7] = target: C-antigen (human); experiment: flow cytometry, live CCRF-CEM cells, 200 µg/mL
[8] = target: C-antigen (human); experiment: cell-fixed ELISA, HT-29 cells, 2.5 µg/mL
[9] = target: C-antigen (human); experiment: flow cytometry, live MB-468 cells, 200 µg/mL
[10] = target: C-antigen (human); experiment: cell-fixed ELISA, CA-46 cells, 2.5 µg/mL
[11] = target: C-antigen (human); experiment: flow cytometry, live CA-46 cells, 200 µg/mL
[12] = target: C-antigen (human); experiment: cell-fixed ELISA, DAUDI cells, 2.5 µg/mL
[13] = target: C-antigen (human); experiment: flow cytometry, live LS-174T cells, 200 µg/mL
[14] = target: C-antigen (human); experiment: cell-fixed ELISA, NCI-69 cells, 2.5 µg/mL
[15] = target: C-antigen (human); experiment: flow cytometry, live H9 cells, 200 µg/mL
[16] = target: C-antigen (human); experiment: radioligand binding to LS174T cells
[17] = target: C-antigen (human); experiment: cell-fixed ELISA, A-427 cells, 2.5 µg/mL
[18] = target: C-antigen (human); experiment: cell-fixed ELISA, CEM cells, 2.5 µg/mL
[19] = target: C-antigen (human); experiment: flow cytometry, live RAMOS cells, 100 µg/mL
[20] = target: C-antigen (human); experiment: cell-fixed ELISA, SK-Co-1 cells, 2.5 µg/mL
[21] = target: C-antigen (human); experiment: cell-fixed ELISA, MB-468 cells, 2.5 µg/mL
[22] = target: C-antigen (human); experiment: flow cytometry, live WI-38 human diploid lung cells, 100 µg/mL
[23] = target: C-antigen (human); experiment: cell-fixed ELISA, BT-20 cells, 2.5 µg/mL
[24] = target: C-antigen (human); experiment: flow cytometry, live H9 cells, 100 µg/mL
[25] = target: C-antigen (human); experiment: cell-fixed ELISA, SK-N-MC cells, 2.5 µg/mL
[26] = target: C-antigen (human); experiment: cell-fixed ELISA, SK-MEL-5 cells, 2.5 µg/mL
[27] = target: C-antigen (human); experiment: cell-fixed ELISA, SK-BR-3 cells, 2.5 µg/mL
[28] = target: C-antigen (human); experiment: cell-fixed ELISA, LS17T cells, 2.5 µg/mL
[29] = target: C-antigen (human); experiment: cell-fixed ELISA, tumour cell lines, against BGA scFv
[30] = target: C-antigen (human); experiment: flow cytometry, live CA-46 cells, 100 µg/mL
[31] = target: C-antigen (human); experiment: cell-fixed ELISA, DU-145 cells, 2.5 µg/mL
[32] = target: C-antigen (human); experiment: cell-fixed ELISA, BT-474 cells, 2.5 µg/mL
[33] = target: C-antigen (human); experiment: cell-fixed ELISA, A-375 cells, 2.5 µg/mL
[34] = target: C-antigen (human); experiment: cell-fixed ELISA, SAOS-2 cells, 2.5 µg/mL
[35] = target: C-antigen (human); experiment: cell-fixed ELISA, HEP-2 cells, 2.5 µg/mL
[36] = target: C-antigen (human); experiment: flow cytometry, live A-375 cells, 200 µg/mL
[37] = target: C-antigen (human); experiment: cell-fixed ELISA, PC-3 cells, 2.5 µg/mL
[38] = target: C-antigen (human); experiment: cell-fixed ELISA, SK-OV-3 cells, 2.5 µg/mL
[39] = target: C-antigen (human); experiment: flow cytometry, live H9 cells, 100 µg/mL; remark: listed apart in the source
[40] = target: C-antigen (human); experiment: flow cytometry, live SKMG-1 cells, 100 µg/mL
[41] = target: C-antigen (human); experiment: flow cytometry, live HT-29 cells, 200 µg/mL
[42] = target: C-antigen (human); experiment: flow cytometry, live RAMOS cells, 200 µg/mL
[43] = target: C-antigen (human); experiment: cell-fixed ELISA, SK-LU-1 cells, 2.5 µg/mL
[44] = target: C-antigen (human); experiment: cell-fixed ELISA, SK-MEL-28 cells, 2.5 µg/mL
[45] = target: C-antigen (human); experiment: flow cytometry, live SKMG-1 cells, 100 µg/mL (second row)
[46] = target: C-antigen (human); experiment: cell-fixed ELISA, K-562 cells, 2.5 µg/mL
[47] = target: C-antigen (human); experiment: cell-fixed ELISA, T-24 cells, 2.5 µg/mL
[48] = target: C-antigen (human); experiment: cell-fixed ELISA, U-118MG cells, 2.5 µg/mL
[49] = target: C-antigen (human); experiment: cell-fixed ELISA, SW-9000 cells, 2.5 µg/mL
[50] = target: C-antigen (human); experiment: cell-fixed ELISA, RAMOS cells, 2.5 µg/mL
[51] = target: C-antigen (human); experiment: cell-fixed ELISA, U-2 OS cells, 2.5 µg/mL
[52] = target: C-antigen (human); experiment: cell-fixed ELISA, D-54MG cells, 2.5 µg/mL
[53] = target: C-antigen (human); experiment: cell-fixed ELISA, SKMG-1 cells, 2.5 µg/mL
[54] = target: C-antigen (human); experiment: cell-fixed ELISA, T47D cells, 2.5 µg/mL
[55] = target: C-antigen (human); experiment: radioligand binding to A-375 cells
[56] = target: C-antigen (human); experiment: cell-fixed ELISA, NCI-H82 cells, 2.5 µg/mL
[57] = target: C-antigen (human); experiment: radioligand binding to SKMG1 cells
[58] = target: C-antigen (human); experiment: flow cytometry, live SK-BR-3 cells, 200 µg/mL

Mean Fluorescence (MF) [1]: 169
Molecule: Control IgG1 (antibody)

% Increase of MF above IgG1 control [2]: 2% and 9% | Mean Fluorescence (MF) [2]: 172 and 184 | % Increase of MF above IgG1 control [3]: 33% | Mean Fluorescence (MF) [3]: 224 | % Increase of MF above IgG1 control [4]: 14% and 10% | Mean Fluorescence (MF) [4]: 192 and 186 | % Increase of MF above IgG1 control [5]: 18% | Mean Fluorescence (MF) [5]: 200
B1: recombinantly produced H11 IgG1 (antibody)
VH: QAIVTLNTQAMHPTRWELSHMVDLQAAALVISSFITEHRGLTMEFGLSWVFLVALLRGIQCQVQLVESGGGVVQPGRSLRLSCAASGFPFRSFAMHWVRQALGKGLEWVAVISYDGSTKYYADSVKGRFTISRDTSKNTVYLKMNRLRTEDTAVFYLCERQSLLGDYDHYYGLDAWGKG
VL: LEMDMEFQAQLLFLLLLWLPDITGDIVLTQSPGTLSLSPGERATLSCRASQSVSSSYLAWYQQKPGQAPRLLIYGASTRATGMPDRFSGSGSGTDFTLTISRLEPEDFAVYYCQQYGSSPQTPQITFGGGTKVEIKRTVAAPSVFIFPPS

% FLUORESCENCE […] [6]: 52% | % Positive Cells [6]: 38% | Mean Fluorescence [6]: 242 | % FLUORESCENCE […] [7]: 35% | % Positive Cells [7]: 34% | Mean Fluorescence [7]: 231 | O.D. at 450 nm [8]: 0.53 O.D. | % Positive Cells [9]: 11% | Mean Fluorescence [9]: 156 | O.D. at 450 nm [10]: 1.2 O.D. | % FLUORESCENCE […] [11]: 108% | % Positive Cells [11]: 76% | Mean Fluorescence [11]: 262 | O.D. at 450 nm [12]: 1.38 O.D. | % Positive Cells [13]: 37% | Mean Fluorescence [13]: 233 | O.D. at 450 nm [14]: 0.44 O.D. | % FLUORESCENCE […] [15]: 20% | % Positive Cells [15]: 13% | Mean Fluorescence [15]: 186 | Ka [16]: 3e+08 M⁻¹ | O.D. at 450 nm [17]: 0.4 O.D. | O.D. at 450 nm [18]: 1.4 O.D. | % FLUORESCENCE […] [19]: 87% | % Positive Cells [19]: 67% | Mean Fluorescence [19]: 316 | O.D. at 450 nm [20]: 0.56 O.D. | O.D. at 450 nm [21]: 0.65 O.D. | % Positive Cells [22]: 15% | Mean Fluorescence [22]: 255 | O.D. at 450 nm [23]: 0.54 O.D. | % FLUORESCENCE […] [24]: 15% | % Positive Cells [24]: 9% | Mean Fluorescence [24]: 171 | O.D. at 450 nm [25]: 0.5 O.D. | O.D. at 450 nm [26]: 0.61 O.D. | O.D. at 450 nm [27]: 0.58 O.D. | O.D. at 450 nm [28]: 0.57 O.D. | affinity relative to control scFv [29]: 8 to 50 fold | % FLUORESCENCE […] [30]: 66% | % Positive Cells [30]: 58% | Mean Fluorescence [30]: 221 | O.D. at 450 nm [31]: 0.42 O.D. | O.D. at 450 nm [32]: 0.6 O.D. | O.D. at 450 nm [33]: 0.97 O.D. | O.D. at 450 nm [34]: 0.88 O.D. | O.D. at 450 nm [35]: 0.08 O.D. | % Positive Cells [36]: 80% and 76% | Mean Fluorescence [36]: 207 and 235 | O.D. at 450 nm [37]: 0.36 O.D. | O.D. at 450 nm [38]: 0.77 O.D. | % Positive Cells [39]: 13% | Mean Fluorescence [39]: 145 | % Positive Cells [40]: 31% | Mean Fluorescence [40]: 206 | % Positive Cells [41]: 18% | Mean Fluorescence [41]: 179 | % FLUORESCENCE […] [42]: 143% | % Positive Cells [42]: 95% | Mean Fluorescence [42]: 423 | O.D. at 450 nm [43]: 0.45 O.D. | O.D. at 450 nm [44]: 0.71 O.D. | % Positive Cells [45]: 27% | Mean Fluorescence [45]: 224 | O.D. at 450 nm [46]: 0.65 O.D. | O.D. at 450 nm [47]: 0.97 O.D. | O.D. at 450 nm [48]: 0.47 O.D. | O.D. at 450 nm [49]: 0.41 O.D. | O.D. at 450 nm [50]: 1.3 O.D. | O.D. at 450 nm [51]: 0.93 O.D. | O.D. at 450 nm [52]: 0.5 O.D. | O.D. at 450 nm [53]: 0.56 O.D. | O.D. at 450 nm [54]: 0.64 O.D. | Ka [55]: 3.6e+08 M⁻¹ | binding sites/cell (binding sites/cell) [55]: 24000 | O.D. at 450 nm [56]: 0.44 O.D. | Ka [57]: 1.4e+09 M⁻¹ | binding sites/cell (binding sites/cell) [57]: 5000 | % Positive Cells [58]: 36% | Mean Fluorescence [58]: 233
B2: H11-scFv (scFv)
scFv: DIVLTQSPGTLSLSPGERATLSCRASQSVSSSYLAWYQQKPGQAPRLLIYGASTRATGMPDRFSGSGSGTDFTLTISRLEPEDFAVYYCQQYGSSPQTPQITFGGGTKVEIKRTVAAPSVSGGGGSGGGGSGGGGSQVQLVESGGGVVQPGRSLRLSCAASGFPFRSFAMHWVRQALGKGLEWVAVISYDGSTKYYADSVKGRFTISRDTSKNTVYLKMNSLRTEDTAVYYCARDQSLLGDYDHYYGLDVWGKGTTVTVSSGSEQKLISEEDLNHHHHH
